The source of these data is patent US20240272170A1 (QUANTUM SI, published 2024).

The target of one assay is T1, VA peptide.
T1 construct: The peptide was coated on the Octet sensor; also called peptide with N-terminal valine and penultimate alanine
The experiment in a line: BLI (Octet), peptide on sensor, purified protein in solution. From the text:
(§1) In the high-throughput assay, Octet sensors are coated with the peptide of interest and dipped in buffer containing the purified protein. An approximation of relative binding can be obtained by comparing the response after 200 seconds for each protein. Each protein has approximately the same molecular mass and is used at the same concentration, so ranking the proteins by response level in this assay gives an approximation of which proteins have improved binding. Studying the on and off-rate can also give insight into the mechanism of binding.
In general terms: BLI is a label-free optical method that tracks binding on a fibre tip over time.

For another assay, the target named is T2, LA peptide.
T2 construct: The peptide was coated on the Octet sensor; also called peptide with N-terminal leucine and penultimate alanine
Described as above.
From the text: as §1

A further assay deals with T3, AA peptide.
T3 construct: The peptide was coated on the Octet sensor; also called peptide with N-terminal alanine and penultimate alanine
The assay is described as above.
From the text: as §1

The target of assay [1] is T4, KA peptide (Octet assay of PS621 variants).
T4 construct: XAKLDEESILKQK with X = K
T4 peptide: KAKLDEESILKQK
Description: Octet (BLI), 30 C.

Assay [2] has as its target T5, HA peptide (Octet assay of PS621 variants).
T5 construct: XAKLDEESILKQK with X = H
T5 peptide: HAKLDEESILKQK
Description: Octet (BLI), 30 C.

For assay [3], the target named is T6, RA peptide (Octet assay of PS621 variants).
T6 construct: X… with X = R
Description: Octet (BLI), 30 C. From the text:
(§2) Peptides of the sequence RXKLDEESILKQK (SEQ ID NO: 1076) were also used to evaluate the penultimate residue effect.

In assay [4] the target is T7, RL peptide (Octet assay of PS621 variants).
T7 construct: RXKLDEESILKQK with X = L
T7 peptide: RLKLDEESILKQK
The experiment in a line: Octet (BLI), 30 C.
From the text: as §2

B1: PS557 (other)
chain: MPTAASATESAIEDTPAPARPEVDGRTKPKRQPRYHVVLWNDDDHTYQYVVVMLQSLFGHPPERGYRLAKEVDTQGRVIVLTTTREHAELKRDQIHAFGYDRLLARSKGSMKASIEAEE
notes: Natural parent ClpS protein, expressed in E. coli and purified; also called WT; wild-type protein
As for B1, the “Octet response after 200 sec association” value in the assay with VA peptide was found to be 5.9 nm; with LA peptide, 9.8 nm; with AA peptide it was 0.01 nm.

B2: PS798 (designed binder)
chain: MPTAASATESAIEDTPAPARPEVDGRTKPKRQPRYHVVLWNDDDHTYQYVVVMLQSLFGHPPERGYRLAKEMDTLGRVIVLTTTREHAELKRDQIHAFGYDRLLARSKGSMKASIEAEE
notes: Variant of PS557; also called V72M, Q75L
For the molecule B2, the results for the “Octet response after 200 sec association” value with VA peptide, with LA peptide and with AA peptide were 12.9 nm, 13.9 nm and 3.8 nm, respectively.

B3: PS824 (designed binder)
chain: MPTAASATESAFEDTPAPARPEVDGRTKPKRQPRYHVVLWDDDDHTYQYVVVMLRSLFGHPPERGYRLAKEMDTQGRVIVLTTTREHAELKRDQIHAFGYDRLLARSKGSMKASIEAEE
notes: Variant of PS557
Consider B3, for which the “Octet response after 200 sec association” value in the assay with VA peptide was found to be 13.3 nm; with LA peptide, 13.8 nm; in the assay with AA peptide, 3.9 nm.

B4: PS797 (designed binder)
chain: MPTAASATESAIEDTPAPARPEVDGRTKPKRQPRYHVVLWDDDDHTYQYVVVMLQSLFGHPPERGYRLAKEMDTLGRVIVLTTTREHAELKRDQIHAFGYDRLLARSKGSMKASIEAEE
notes: Variant of PS557; also called N41D, V72M, Q75L
For the molecule B4, the “Octet response after 200 sec association” value in the assay with VA peptide is 11.2 nm; in the assay with LA peptide, 12 nm; in the assay with AA peptide it was 3.2 nm.

B5: PS852 (designed binder)
chain: MPTAASATESAIEDTPAPARPEVDGRTKPKHQPRYHVVLWDDDDHTYQYVVVMLRSLFGHPPERGYRLAKEMDTQGRVIVLTTTREHAELKRDQIHAFGYDRLLARSKGSMKASIEAEE
notes: Variant of PS557
Regarding B5, the results for the “Octet response after 200 sec association” value with VA peptide, with LA peptide and with AA peptide were 8.3 nm, 9.7 nm and 1.7 nm, respectively.

B6: PS838 (designed binder)
chain: MPTAASATESAIEDTPAPARPEVDGRTKPKRQPRYHVVLWDDDDHTYQYVVVMLQSLFGHPRERGYRLAKEMDTQGRVIVLTTTREHAELKRDQIHAFGYDRLLARSKGSMKASIEAEE
notes: Variant of PS557; also called V72M, N41D, P62R
Consider B6, for which the “Octet response after 200 sec association” value is 11.6 nm in the assay with VA peptide, 13.4 nm in the assay with LA peptide and 3 nm with AA peptide.

B7: PS808 (designed binder)
chain: MPTAASATESAIEDTPAPARPEVDGRTKPKRQPRYHVVLWNDDDHTYQYVVVMLRSLFGHPPERGYRLAKEVDTQGRVIVLTTTREHAELKRDQIHAFGYDRLLARSKGSMKASIEAEE
notes: Variant of PS557; also called Q55R
For B7, the “Octet response after 200 sec association” value stood at 5.71 nm in the assay with VA peptide, 10.4 nm in the assay with LA peptide and 0.0027 nm in the assay with AA peptide.

B8: PS801/PS814 (designed binder)
chain: MPTAASATESAIEDTPAPARPEVDGRTKPKRQPRYHVVLWNDDDHTYQYVVVMLQSLFGHPPKRGYRLAKEVDTQGRVIVLTTTREHAELKRDQIHAFGYDRLLARSKGSMKASIEAEE
notes: also called E63K
B8: the entries for the “Octet response after 200 sec association” value with VA peptide, in the assay with LA peptide and with AA peptide were 5.73 nm, 10.7 nm and 0.0017 nm, respectively.

B9: PS796 (designed binder)
chain: MPTAASATESAIEDTPAPARPEVDGRTKPKRQPRYHVVLWDDDDHTYQYVVVMLQSLFGHPPERGYRLAKEMDTQGRVIVLTTTREHAELKRDQIHAFGYDRLLARSKGSMKASIEAEE
notes: also called N41D, V72M
B9: the “Octet response after 200 sec association” value worked out at 11.3 nm in the assay with VA peptide, 11.9 nm with LA peptide and 3.5 nm with AA peptide.

B10: PS831 (designed binder)
chain: MPTAASATESAIEDTPAPARPEVDGRTKPKRQPRYHVVLWNDDDHTYQYVVVMLQSLFGHPRKRGYRLAKEMDTLGRVIVLTTTREHAELKRDQIHAFGYDRLLARSKGSMKASIEAEE
notes: Variant of PS557
With B10, the “Octet response after 200 sec association” value turned out to be 11 nm in the assay with VA peptide, 12.2 nm in the assay with LA peptide and 1.4 nm with AA peptide.

B11: PS1106 (designed binder)
chain: MHSKFSHAGRICGAKFKVGEPIYRCKECSFDDTCVLCVNCFNPKDHTGHHVYVTICTEFNNGICDCGDKEAWNHTLFCKAEEG
notes: Variant of PS621
For the molecule B11, the Octet response in assay [1] was 4.7; in assay [2], 0.6; in assay [3], 7.6; in assay [4] it was 9.

B12: PS1110 (designed binder)
chain: MHSKFSHAGRICGAKFKVGEPIYRCKECSFDDTCVLCVNCFNPKDHTGHHVYTTICTEFNNGECDCGDKEAWNHTLFCKAEEG
notes: Variant of PS621
For the molecule B12, the Octet response in assay [1] turned out to be 6.6; in assay [2], 2.4; in assay [3] it was 7; in assay [4] it was 9.8.

B13: PS1112 (designed binder)
chain: MHSKFSHAGRICGAKFKVGEPIYRCKECSFDDTCVLCVNCFNPKDHTGHHVYTTICTEFNNGICDCGDKTAWNHTLFCKAEEG
notes: Variant of PS621
With B13, the Octet response in assay [1] was found to be 2.3; in assay [3], 8.6; in assay [4], 9.9.

B14: PS1111 (designed binder)
chain: MHSKFSHAGRICGAKFKVGEPIYRCKECSFDDTCVLCVNCFNPKDHTGHHVYTTICTEFNNGICDCGDKSAWNHTLFCKAEEG
notes: Variant of PS621
As for B14, the Octet response in assay [1] was determined as 2.7; in assay [3] it was 7.9; in assay [4], 10.

B15: PS1121 (designed binder)
chain: MHSKFSHAGRICGAKFKVGEPIYRCKECSFDDTCVLCVNCFNPKDHKGHHVYTTICTEFNNGICDCGDKEAWNHTLFCKAEEG
notes: Variant of PS621
B15: the Octet response in assay [1] came to 5.4; in assay [2], 2.2; in assay [3], 9.5; in assay [4], 10.6.

B16: PS1117 (designed binder)
chain: MHSKFSHAGRICGAKFKVGEPIYRCKECSFDDTCVLCVNCFNPKDHLGHHVYTTICTEFNNGICDCGDKEAWNHTLFCKAEEG
notes: Variant of PS621
As for B16, the Octet response in assay [1] is 3.5; in assay [2], 0.5; in assay [3], 8.6; in assay [4], 9.

B17: PS1114 (designed binder)
chain: MHSKFSHAGRICGAKFKVGEPIYRCKECSFDDTCVLCVNCFNPKDHRGHHVYTTICTERNNGICDCGDKEAWNHTLFCKAEEG
notes: Variant of PS621
As for B17, the Octet response in assay [1] was 5.3; in assay [2] it was 1.2; in assay [3], 9.2; in assay [4], 9.7.

B18: PS1108 (designed binder)
chain: MHSKFSHAGRICGAKFKVGEPIYRCKECSFDDTCVLCVNCFNPKDHTGHHVYTTICTERNNGICDCGDKEAWNHTLFCKAEEG
notes: Variant of PS621
As to B18, the Octet response in assay [1] was found to be 5; in assay [2] it was 1.2; in assay [3], 8.2; in assay [4], 10.3.

B19: PS1116 (designed binder)
chain: MHSKFSHAGRICGAKFKVGEPIYRCKECSFDDTCVLCVNCFNPKDHTYHHVYTTICTEFNNGICDCGDKEAWNHTLFCKAEEG
notes: Variant of PS621
B19: the Octet response in assay [1] amounted to 1.2; in assay [3] it was 7.1; in assay [4] it was 8.5.

B20: PS1122 (designed binder)
chain: MHSKFSHAGRICGAKFKVGEPIYRCKECSFDDTCVLCVNCFNPKDHLGHHVYTTICTEFNNGECDCGDKTAWNHTLFCKAEEG
notes: Variant of PS621 (T47L, I63E, E70T)
B20: the Octet response is 4.6 in assay [1], 1.3 in assay [2], 9.9 in assay [3] and 11.2 in assay [4].

B21: PS1109 (designed binder)
chain: MHSKFSHAGRICGAKFKVGEPIYRCKECSFDDTCVLCVNCFNPKDHTGHHVYTTICTEFNKGICDCGDKEAWNHTLFCKAEEG
notes: Variant of PS621
For the molecule B21, the Octet response turned out to be 4.7 in assay [1], 0.6 in assay [2], 8.2 in assay [3] and 10.5 in assay [4].

B22: PS1113 (designed binder)
chain: MHSKFSHAGRICGAKFKVGEPIYRCKECSFDDTCVLCVNCFNPKDHTGHHVYTTICTEFNNGICDCGDKEAWNKTLFCKAEEG
notes: Variant of PS621
Consider B22, for which the Octet response turned out to be 3.8 in assay [1], 0.2 in assay [2], 7.7 in assay [3] and 9.3 in assay [4].
